Laboratory results: PMC5270629 (Thrombosis research, 2015)

Biological target: T1, human fibrinogen (human, UniProt P02671-2 20-644; P02675 31-491; P02679-2 27-437)
T1 sequence (looked up) 1: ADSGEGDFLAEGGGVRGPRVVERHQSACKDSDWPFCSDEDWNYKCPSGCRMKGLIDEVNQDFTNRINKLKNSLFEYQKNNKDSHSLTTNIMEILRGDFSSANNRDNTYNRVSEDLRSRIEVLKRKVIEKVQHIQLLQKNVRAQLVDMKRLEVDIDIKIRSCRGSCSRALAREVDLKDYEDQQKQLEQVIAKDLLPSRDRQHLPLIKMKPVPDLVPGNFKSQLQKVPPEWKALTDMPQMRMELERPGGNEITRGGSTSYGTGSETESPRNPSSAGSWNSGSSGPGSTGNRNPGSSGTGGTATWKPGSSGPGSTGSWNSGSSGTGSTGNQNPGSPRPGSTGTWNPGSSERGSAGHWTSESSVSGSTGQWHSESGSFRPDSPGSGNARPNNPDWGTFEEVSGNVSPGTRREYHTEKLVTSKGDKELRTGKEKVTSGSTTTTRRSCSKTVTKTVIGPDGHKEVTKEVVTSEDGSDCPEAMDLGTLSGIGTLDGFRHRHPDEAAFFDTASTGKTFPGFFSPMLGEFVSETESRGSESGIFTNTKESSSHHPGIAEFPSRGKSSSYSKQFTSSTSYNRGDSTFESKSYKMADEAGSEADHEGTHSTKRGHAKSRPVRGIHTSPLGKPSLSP
T1 sequence (looked up) 2: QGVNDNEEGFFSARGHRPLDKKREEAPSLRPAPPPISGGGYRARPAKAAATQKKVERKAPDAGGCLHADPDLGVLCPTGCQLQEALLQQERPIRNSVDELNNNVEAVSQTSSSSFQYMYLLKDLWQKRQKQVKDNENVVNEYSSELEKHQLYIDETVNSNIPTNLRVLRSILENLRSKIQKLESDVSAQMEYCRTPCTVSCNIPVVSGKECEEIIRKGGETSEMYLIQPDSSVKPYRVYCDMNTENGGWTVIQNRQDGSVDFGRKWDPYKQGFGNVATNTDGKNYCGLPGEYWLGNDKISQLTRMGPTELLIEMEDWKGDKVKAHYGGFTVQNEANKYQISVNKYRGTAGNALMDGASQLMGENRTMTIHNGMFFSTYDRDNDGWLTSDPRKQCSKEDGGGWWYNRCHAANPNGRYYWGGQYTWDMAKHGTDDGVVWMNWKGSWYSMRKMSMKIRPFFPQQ
T1 sequence (looked up) 3: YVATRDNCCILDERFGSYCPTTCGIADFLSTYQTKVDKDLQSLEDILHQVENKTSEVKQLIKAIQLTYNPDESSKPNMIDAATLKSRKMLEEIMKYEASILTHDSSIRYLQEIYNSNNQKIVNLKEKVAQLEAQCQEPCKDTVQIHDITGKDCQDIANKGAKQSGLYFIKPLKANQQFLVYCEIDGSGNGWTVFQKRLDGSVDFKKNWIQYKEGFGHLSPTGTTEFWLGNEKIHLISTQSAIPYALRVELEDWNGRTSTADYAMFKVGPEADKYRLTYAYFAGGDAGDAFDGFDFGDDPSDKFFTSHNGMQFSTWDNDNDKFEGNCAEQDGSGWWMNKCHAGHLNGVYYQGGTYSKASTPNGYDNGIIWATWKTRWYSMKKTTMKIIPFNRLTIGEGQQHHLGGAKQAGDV
Assay: SPR

Kd: 125 ± 30 nM
B1: recombinant von Willebrand factor (VWF) A2 domain polypeptide, A2_(1481-1668) (domain or fragment)
chain: GLLGVSTLGPKRNSMVLDVAFVLEGSDKIGEADFNRSKEFMEEVIQRMDVGQDSIHVTVLQYSYMVTVEYPFSEAQSKGDILQRVREIRYQGGNRTNTGLALRYLSDHSFLVSQGDREQAPNLVYMVTGNPASDEIKRLPGDIQVVPIGVGPNANVQELERIGWPNAPILIQDFETLPREAPDLVLQR
